# Patent US20220177587A1, “METHODS AND USES OF VARIANT CD80 FUSION PROTEINS AND RELATED CONSTRUCTS” (Alpine Immune Sciences, Inc., priority 2018, published 2022)
# Where no end group is shown, it is not given here.
# Columns and labels:
# CD28 [1] = molecular target: T1, CD28 (Homo sapiens, UniProt P10747); assay: Jurkat/IL2 + CHO/OKT3 +/- PD-L1 reporter assay: PD-L1-dependent CD28 costimulation; format: cell-based; parameters: host or cells: Jurkat cells expressing an IL-2-luciferase reporter
# Experimental: Jurkat cells were then plated at 50 μL/well for a total of 100,000 cells per well.
# To each well, 25 μL of test protein was added to the Jurkat cells. […] The Jurkat cells with test or control proteins were incubated for 15 minutes at room temperature. CHO-derived artificial antigen presenting cells (aAPC) displaying transduced cell surface anti-CD3 single chain Fv (OKT3) (i.e., no PD-L1), or OKT3 and PD-L1 (i.e., +PD-L1), were brought to 0.8×10^6 cells/mL, and 25 μL of cells were added to each well, bringing the final volume of each well to 100 μL. […] Jurkat cells and CHO cells were incubated for 5 hours at 37 degrees Celsius in a humidified 5% CO2 incubation chamber. Plates were then removed from the incubator and acclimated to room temperature for 15 minutes. 100 μL of a cell lysis and luciferase substrate solution (BioGlo luciferase reagent, Promega) were added to each well and the plates were incubated on an orbital shaker for 10 minutes. Luminescence was measured with a 1 second per well integration time using a BioTek Cytation luminometer, and a relative luminescence value (RLU) was determined for each test sample.
# huCTLA4 = huCTLA4 (Homo sapiens, UniProt P16410); assay: Flow binding to CHO cells stably expressing CTLA4; parameters: huCTLA4 and huPD-L1, full-length mammalian surface expression constructs were generated; expressed in transfected cells; host or cells: CHO cells, lentiviral transduction, sorted to >98% purity; conditions: for CTLA4 MFI at 33.3 nM: CHO cells stably expressing CTLA4
# Experimental: (§1) Binding of selected immunomodulatory fusion proteins to cognate binding partners was assessed. […] Cells were sorted in a Bio-Rad S3 Cell Sorter (Bio-Rad Corp., USA) to >98% purity. Jurkat/IL2 reporter cells, which endogenously express CD28, were used to detect binding to CD28.
# (§2) For staining and analysis by flow cytometry, 100,000 cells of appropriate transfected cells were plated in 96-well round bottom plates. Cells were spun down and resuspended in staining buffer (phosphate buffered saline (PBS), 1% bovine serum albumin (BSA), and 0.1% sodium azide) for 20 minutes to block non-specific binding. […] Primary staining was performed on ice for 45 minutes, before washing cells in staining buffer twice. Phycoerythrin (PE)-conjugated anti-human Fc (Jackson ImmunoResearch, USA) was diluted 1:150, added to cells and incubated another 30 minutes on ice. Cells were then washed twice with 150 μL/well stain buffer, fixed in 2% formaldehyde/PBS, and analyzed on Intellicyt flow cytometer (Intellicyt Corp., USA). PE Mean Fluorescence Intensity (MFI) was calculated for each cell type with FlowJo Version 10 software (FlowJo LLC, USA).
# (§3) Binding assays were carried out to assess the specificity and affinity of multivalent proteins to cell-expressed CTLA-4, CD28, and PD-L1 counter structures.
# (§4) The EC50 for binding also was determined.
# CD28 [2] = molecular target: T1, CD28; assay: Flow binding to Jurkat/IL2 reporter cells (CD28); parameters: host or cells: Jurkat cells expressing an IL-2-luciferase reporter; conditions: for CD28 Fold change to WT CD80: MFI at 33.3 nM relative to CD80 WT IgV-Fc
# Experimental: as §1, §2, §3, §4
# huPD-L1 = huPD-L1 (Homo sapiens, UniProt Q9NZQ7); assay: Flow binding to CHO cells stably expressing PD-L1; parameters: huCTLA4 and huPD-L1, full-length mammalian surface expression constructs were generated; expressed in transfected cells; host or cells: CHO cells, lentiviral transduction, sorted to >98% purity; conditions: for PD-L1 MFI at 33.3 nM: CHO cells stably expressing PD-L1; for PD-L1 Fold change to WT CD80: MFI at 33.3 nM relative to CD80 WT IgV-Fc
# Experimental: as §1, §2, §3, §4
# [3] = Table E22, Jurkat/IL2 + CHO/OKT3/PD-L1, 5.0 nM
# [4] = Table E22, Jurkat/IL2 + CHO/OKT3/PD-L1, CD80 Conc 5.0 nM
# [5] = Table E20, MFI at 33.3 nM relative to CD80 WT IgV-Fc
# [6] = Table E20, Jurkats (CD28), 33.3 nM
# [7] = Table E20, ratio of MFI at 33.3 nM
# [8] = Table E24, Jurkat/IL2 + CHO/OKT3/PD-L1, 5.0 nM
# [9] = Table E23, CD80 IgV-Fc (inert) at 33.3 nM
# [10] = Table E23, MFI at 33.3 nM relative to CD80 WT IgV-Fc
# [11] = Table E23, CD80 IgV-Fc (inert) at 33.3 nM, Jurkat (CD28)
# [12] = Table E23, ratio of MFI at 33.3 nM
# [13] = Table E15, CHO/OKT3/PD-L1, 5.0 nM
# [14] = Table E14, 33.3 nM, listed as CD80 WT IgV-Fc = 1.0
# Sequence of huCTLA4 (P16410 36-223): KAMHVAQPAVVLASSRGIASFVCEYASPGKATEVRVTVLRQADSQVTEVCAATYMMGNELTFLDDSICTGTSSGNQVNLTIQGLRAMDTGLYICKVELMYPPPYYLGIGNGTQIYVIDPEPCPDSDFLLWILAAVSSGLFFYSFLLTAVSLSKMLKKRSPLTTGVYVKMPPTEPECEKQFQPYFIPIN
# Sequence of huPD-L1 (Q9NZQ7 19-290): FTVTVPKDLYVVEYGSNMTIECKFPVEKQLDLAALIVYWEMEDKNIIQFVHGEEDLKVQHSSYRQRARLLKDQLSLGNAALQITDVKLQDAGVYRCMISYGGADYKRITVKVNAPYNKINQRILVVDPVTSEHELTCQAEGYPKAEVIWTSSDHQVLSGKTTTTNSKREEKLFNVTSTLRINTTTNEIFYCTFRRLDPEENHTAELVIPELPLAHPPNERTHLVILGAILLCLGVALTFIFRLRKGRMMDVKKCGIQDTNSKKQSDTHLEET
Substance,Fold Increase over WT CD80-IgV-Fe (CD28 [1]; [3]) [fold],"Relative Luciferase Units (RLU), CD80 Conc 5.0 nM (CD28 [1]; [4]) [RLU]","CTLA4 MFI at 33.3 nM (huCTLA4; Table E20, 33.3 nM)",CTLA4 Fold change to WT CD80 (huCTLA4; [5]) [fold],CD28 MFI at 33.3 nM (CD28 [2]; [6]),CD28 Fold change to WT CD80 (CD28 [2]; Table E20) [fold],"PD-L1 MFI at 33.3 nM (huPD-L1; Table E20, 33.3 nM)",PD-L1 Fold change to WT CD80 (huPD-L1; Table E20) [fold],Ratio of PDL1:CD28 (huPD-L1; [7]),also measured
H18Y/A26E/E35D/A71G/D90G,2.45,956,−100,−0.1,1075,24.5,14822,340.0,13.8,–
H18Y/A26E/E35D/M47L/A71G,2.42,944,19353,14.2,379,8.6,16887,387.3,44.6,–
H18Y/A26E/E35D/M47L/D90G,2.37,925,19736,14.5,1379,31.4,12698,291.2,9.2,–
H18Y/A26E/E35D/M47L/V68M/D90G,2.29,893,24855,18.3,2675,60.9,25217,578.4,9.4,–
H18Y/A26E/E35D/V68M/A71G,2.46,961,19394,14.3,394,9.0,27476,630.2,69.7,–
H18Y/A26E/E35D/V68M/A71G/D90G,2.41,940,23386,17.2,1757,40.0,28683,657.9,16.3,–
H18Y/A26E/E35D/V68M/D90G,2.69,1049,19331,14.2,2584,58.9,23206,532.2,9.0,–
H18Y/A26E/M47L/V68M/A71G/D90G,2.19,853,121,0.1,2556,58.2,31716,727.4,12.4,–
H18Y/A26E/M47L/V68M/D90G,2.76,1075,28649,21.1,32,0.7,23594,541.1,737.3,–
H18Y/A26E/V68M/A71G/D90G,2.50,974,18305,13.5,2683,61.1,27872,639.3,10.4,–
H18Y/A26Q/E35D/M47T/V68M/A71G/D90G,–,–,–,–,–,–,–,–,–,"Fold Increase over WT CD80-IgV-Fe (CD28 [1]; [8]): 5.8; Relative Luciferase Units (RLU), CD80 Conc 5.0 nM (CD28 [1]; [8]): 994 RLU; CTLA4 MFI at 33.3 nM (huCTLA4; [9]): 16652; CTLA4 Fold change to WT CD80 (huCTLA4; [10]): 12.0; CD28 MFI at 33.3 nM (CD28 [2]; [11]): 6733; CD28 Fold change to WT CD80 (CD28 [2]; Table E23): 66.0; PD-L1 MFI at 33.3 nM (huPD-L1; [9]): 24450; PD-L1 Fold change to WT CD80 (huPD-L1; Table E23): 148.2; Ratio of PDL1:CD28 (huPD-L1; [12]): 3.6"
H18Y/E35D/M47L/V68M/A71G,2.19,853,23667,17.4,928,21.1,30377,696.7,32.7,–
H18Y/E35D/M47V/V68M/A71G/D90G,–,–,–,–,–,–,–,–,–,"Fold Increase over WT CD80-IgV-Fe (CD28 [1]; [8]): 4.8; Relative Luciferase Units (RLU), CD80 Conc 5.0 nM (CD28 [1]; [8]): 825 RLU; CTLA4 MFI at 33.3 nM (huCTLA4; [9]): 17165; CTLA4 Fold change to WT CD80 (huCTLA4; [10]): 12.4; CD28 MFI at 33.3 nM (CD28 [2]; [11]): 6792; CD28 Fold change to WT CD80 (CD28 [2]; Table E23): 66.6; PD-L1 MFI at 33.3 nM (huPD-L1; [9]): 52151; PD-L1 Fold change to WT CD80 (huPD-L1; Table E23): 316.1; Ratio of PDL1:CD28 (huPD-L1; [12]): 7.7"
"deltaE10-A98: variant CD80 IgV-Fc, IgV SEQ ID NO:545 (VIHVTKEVKEVTLSVKAD; not fully specified)",–,–,–,–,–,–,–,–,–,"Fold Increase over WT CD80-IgV-Fe (CD28 [1]; [13]): 0.3; Relative Luciferase Units (RLU), CD80-Fe Cone 5.0 nM (CD28 [1]; [13]): 137 RLU; CTLA4 Fold change to WT CD80 (huCTLA4; [14]): 0.1; CTLA4 MFI at 33.3 nM (huCTLA4; Table E14, 33.3 nM): 125; CD28 Fold change to WT (CD28 [2]; [14]): 0.4; CD28 MFI at 33.3 nM (CD28 [2]; Table E14, Jurkats (CD28), 33.3 nM): 15; PD-L1 Fold change to WT (huPD-L1; [14]): 0.5; PD-L1 MFI at 33.3 nM (huPD-L1; Table E14, 33.3 nM): 45; Ratio of PDL1:CD28 (huPD-L1; Table E14, MFI at 33.3 nM): 3"
